Test results reported in PMC3173486.

What was measured:
[1] = target: HA of A/swine/Netherlands/1/87 (H1N1) (influenza A virus A/swine/Netherlands/1/87 (H1N1))
[2] = target: HA of human-derived H3N2 strains
[3] = target: HA of the 2009 pandemic H1N1 strains, California/4/09 and Netherlands/602/09
[4] = target: HA of all influenza A/H1N1 viruses tested with RpSP-D multimers and trimers

“RpSP-D trimers (from UniProt Q9N1X4 21-378) (natural protein)” was tested. Which HI assay: minimal inhibitory concentration of RpSP-D trimers; not inhibited [1] did it give?
Its HI assay: minimal inhibitory concentration of RpSP-D trimers; not inhibited is over 1600 ng/100 µl.

B1: recombinant porcine SP-D, Q9N1X4 21-378 (natural protein)
chain: AEMKTYSQRAVANACALVMCSPMENGLPGRDGRDGREGPRGEKGDPGLPGAVGRAGMPGLAGPVGPKGDNGSTGEPGAKGDIGPCGPPGPPGIPGPAGKEGPSGQQGNIGPPGTPGPKGETGPKGEVGALGMQGSTGARGPAGLKGERGAPGERGAPGSAGAAGPAGATGPQGPSGARGPPGLKGDRGPPGERGAKGESGLPGITALRQQVETLQGQVQRLQKAFSQYKKVELFPNGRGVGEKIFKTGGFEKTFQDAQQVCTQAGGQMASPRSETENEALSQLVTAQNKAAFLSMTDIKTEGNFTYPTGEPLVYANWAPGEPNNNGGSSGAENCVEIFPNGKWNDKACGELRLVICEF
How did the HI assay: minimal inhibitory concentration of RpSP-D (HA of avian H3N2 viruses) turn out when B1 was run?
Its HI assay: minimal inhibitory concentration of RpSP-D is 14.6 ng/100 µl.

And the HI assay: minimal inhibitory concentration of RpSP-D (HA of swine H3N2 viruses)?
Its HI assay: minimal inhibitory concentration of RpSP-D is 51 ng/100 µl.

What about the HI assay: minimal inhibitory concentration of RpSP-D [2] of the same molecule?
Its HI assay: minimal inhibitory concentration of RpSP-D is 11 ng/100 µl.

What about the HI assay: average inhibitory concentration of RpSP-D [3] of the same molecule?
The HI assay: average inhibitory concentration of RpSP-D was 304 ng/100 µl.

B2: RpSP-D trimers (natural protein)
chain: B1 chain
B2 was tested. Which HI assay: average minimal inhibitory concentration of RpSP-D trimers [4] did it give?
The HI assay: average minimal inhibitory concentration of RpSP-D trimers was 602 ng/100 µl.

B3: RpSP-D multimers (natural protein)
chain: B1 chain
With B3 as the molecule, how does the HI assay: average minimal inhibitory concentration of RpSP-D multimers [4] read?
The HI assay: average minimal inhibitory concentration of RpSP-D multimers was 39.8 ng/100 µl.

B4: recombinant human SP-D, P35247 21-375 (natural protein)
chain: AEMKTYSHRTMPSACTLVMCSSVESGLPGRDGRDGREGPRGEKGDPGLPGAAGQAGMPGQAGPVGPKGDNGSVGEPGPKGDTGPSGPPGPPGVPGPAGREGPLGKQGNIGPQGKPGPKGEAGPKGEVGAPGMQGSAGARGLAGPKGERGVPGERGVPGNTGAAGSAGAMGPQGSPGARGPPGLKGDKGIPGDKGAKGESGLPDVASLRQQVEALQGQVQHLQAAFSQYKKVELFPNGQSVGEKIFKTAGFVKPFTEAQLLCTQAGGQLASPRSAAENAALQQLVVAKNEAAFLSMTDSKTEGKFTYPTGESLVYSNWAPGEPNDDGGSEDCVEIFTNGKWNDRACGEKRLVVCEF
For B4, which HI assay: minimal inhibitory concentration of RhSP-D; failed to inhibit (HA of most H1N1 viruses) is on record?
The HI assay: minimal inhibitory concentration of RhSP-D; failed to inhibit was over 7500 ng/100 µl.
